Measurements as given in patent publication US20120295811, “APTAMERS DIRECTED AGAINST THE MATRIX PROTEIN-1 OF TYPE A INFLUENZA VIRUSES AND USES […]” (published 2012).

Biological target: Matrix protein-1 (M1) (Influenza A virus) (UniProt B4URD8)
Conditions: low-density aptamer microarray, 50x dilution

In the case of tRNA, the binding signal (fluorescence units) was -55.
